Experiment [1] concerns the target T1, cynomolgus monkey CD40-his protein (Acro biosystems, Cat. No. CD0-C52H6) (cynomolgus monkey, UniProt G7PG38 21-193).
T1 construct: Bought protein; not shown: His tag
The experiment in a line: SPR (Biacore T200), antibody captured, CD40-his as analyte, 1:1 fit. The text has this: (§1) Briefly, a goat anti-human IgG (GE Healthcare, Cat. No. BR100839, human antibody capture kit) was covalently linked to a CM5 chip (GE Healthcare, Cat. No. BR100530, carboxymethylated dextran-coated chip) via the primary amine group using a standard amine coupling kit supplied by Biacore (GE Healthcare, Pittsburgh, PA, USA). Unreacted portions on the biosensor surface were blocked with ethanolamine. Then, the anti-CD40 antibody of the present application and two benchmark antibodies (BM1 (dacetuzumab, Genentech Inc., also referred to CD40-BM1, prepared in-house; the heavy and light chain amino acid sequences are set forth in SEQ ID NOs: 40 and 41, respectively) and BM2 (selicrelumab, Abgenix Inc., also referred to CD40-BM2, prepared in-house; the heavy and light chain amino acid sequences are set forth in SEQ ID NOS: 42 and 43, respectively)) at a concentration of 66.67 nM were directed through the chip at a flow rate of 10 μL/min. Then, serially diluted recombinant human CD40-his (Acro biosystems, Cat. No. CD0-H5228, serially 2-fold diluted from 80 nM in HBS-EP⁺ buffer (supplied by Biacore)) or cynomolgus monkey CD40-his protein (Acro biosystems, Cat. No. CD0-C52H6, serially 2-fold diluted from 80 nM in HBS-EP⁺ buffer (supplied by Biacore)) was directed through the chip at a flow rate of 30 μL/min. The antigen-antibody binding kinetics was tracked for 2 min and the dissociation kinetics was tracked for 10 min. The association and dissociation curves were fitted to a 1:1 Langmuir binding model using BIAcore evaluation software. KD, Kₐ, and Kd values were determined.

Experiment [2] has as its target T2, recombinant human CD40-his (Acro biosystems, Cat. No. CD0-H5228) (human, UniProt P25942 21-193).
T2 construct: Bought protein; also called human CD40-his protein; not shown: His tag
The description is as above.
Description: as §1

The target of experiment [3] is T1, cynomolgus monkey CD40-his protein …. The experiment is described as above. This is another data set of the same source.
The target of experiment [4] is T2, recombinant human CD40-his (Acro …). The experiment is described as above. This is another data set of the same source.
A further experiment deals with T3, human CD40-Fc protein (human, biotinylated (sites not given) in the capture ELISA and the benchmark blocking ELISA; not biotinylated in the ligand blocking ELISA).
T3 construct: also called biotinylated human CD40-Fc
The experiment in a line: competitive ELISA (self-competition): BM2 (selicrelumab) coated as competitor, soluble BM2 titrated and pre-mixed with biotinylated human CD40-Fc 0.23 nM, streptavidin-HRP, OD(450-630). The procedure:
The ability of the anti-CD40 antibody of the present application to block the binding of the benchmark to human CD40 was determined by competitive ELISA. Briefly, BM2 antibody was immobilized on a 96-well micro plates at 1 μg/mL in PBS, 100 µL/well, and incubated overnight at 4° C. The next day, the plate was washed once with a washing buffer before a blocking buffer (PBST containing 5% w/v of skim milk) was added. The plate was then incubated at 37° C. for 2 h for blocking. During the blocking of the 96-well plate, the anti-CD40 antibody of the present application or the benchmark was serially 5-fold diluted from 66.7 nM with a biotinylated human CD40-Fc protein (amino acid residues 21-193 of SEQ ID NO: 30 linked to the N terminus of amino acid residues 99-330 of SEQ ID NO: 28, dissolved in PBST containing 2.5% w/v of skim milk at a concentration of 0.23 nM) and then incubated at room temperature for 40 min. After the plate was washed 4 times, the antibody/biotinylated human CD40-Fc mixture was added at 100 μL/well to the plate coated with BM2. The plate was incubated at 37° C. for 40 min and again washed 4 times with the washing buffer. […] The absorbance was read on a microplate reader using the dual wavelength mode (TMB detection wavelength: 450 nm, reference wavelength: 630 nm). […] Data were analyzed using Graphpad Prism software, and IC₅₀ values were obtained.

Read-outs that look alike come from different tables or passages of the source.

B1: mouse anti-CD40 monoclonal antibody C1H1 (antibody, V domains shown)
VH: EVKLVESGGGLVKPGASLKLSCAASGFTFSNYGISWVRQTSDKRLEWVASISSGGDNTYYPDNVKGRFTISRENAKNTLYLQMSSLKSEDTALYYCARAGEKAMDYWGQGTSVTVSS
VL: DIVLTQSPVTLSVTPGDSVSLSCRASQTINNNLHWYQQKSHESPRLLIKYASQSISGIPSRFSGSGSGTDFTLSINSVETEDFGIYFCQQFSSWPLTFGAGTKLELK
notes: Parent mouse antibody from a hybridoma; the mouse constant regions are not; also called Mouse C1H1
Regarding B1, the Kd – broadly, the equilibrium constant for the complex coming apart – amounted to 0.852 nM in experiment [1], 0.684 nM in experiment [2], 0.377 nM in experiment [3] and 0.428 nM in experiment [4]. The off-rate constant (koff) (as a rule, the rate constant with which the complex falls apart) in experiment [1] is 0.00118 s⁻¹; in experiment [2], 0.00123 s⁻¹; in experiment [3] it was 0.000863 s⁻¹; in experiment [4], 0.000897 s⁻¹. In addition, the kon (usually the rate constant with which the complex forms) was 1.39e+06 M⁻¹ s⁻¹ in experiment [1], 1.79e+06 M⁻¹ s⁻¹ in experiment [2], 2.29e+06 M⁻¹ s⁻¹ in experiment [3] and 2.1e+06 M⁻¹ s⁻¹ in experiment [4].

B2: BM2 (selicrelumab) (antibody, human IgG2, kappa, V domains shown)
VH: not shown
VL: DIQMTQSPSSVSASVGDRVTITCRASQGIYSWLAWYQQKPGKAPNLLIYTASTLQSGVPSRFSGSGSGTDFTLTISSLQPEDFATYYCQQANIFPLTFGGGTKVEIKR
notes: Benchmark antibody, prepared in-house; also called CD40-BM2; benchmark
With B2, the IC50 (in general, the concentration needed to halve the response being measured) in the experiment with human CD40-Fc protein came out at 0.529 nM.

Source of the values: patent US20240398942A1 (CHIA TAI TIANQING PHARMACEUTICAL GROUP, published 2024).
